# Results as given in PMC10764318.
# Tests used:
# Test in all cases: BLI
# [1] = target: WRAIR-5001 (rhesus macaque | human)
# [2] = target: WRAIR-5001 (rhesus macaque)
# [3] = target: WRAIR-5004 (rhesus macaque)
# [4] = target: WRAIR-5005 (rhesus macaque)
# [5] = target: WRAIR-5011 (rhesus macaque)
# WRAIR-5011 (rhesus macaque), sequence (VH, as listed by the source, chain 1 of 2): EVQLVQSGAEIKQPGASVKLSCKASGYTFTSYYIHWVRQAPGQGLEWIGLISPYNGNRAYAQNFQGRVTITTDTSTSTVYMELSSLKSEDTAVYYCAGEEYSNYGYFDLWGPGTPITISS
# WRAIR-5011 (rhesus macaque), sequence (VL, as listed by the source, chain 2 of 2): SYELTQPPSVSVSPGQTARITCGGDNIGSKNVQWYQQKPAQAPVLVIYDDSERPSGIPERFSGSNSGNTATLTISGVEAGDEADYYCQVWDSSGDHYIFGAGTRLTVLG
# WRAIR-5004 (rhesus macaque), sequence (VH, as listed by the source, chain 1 of 2): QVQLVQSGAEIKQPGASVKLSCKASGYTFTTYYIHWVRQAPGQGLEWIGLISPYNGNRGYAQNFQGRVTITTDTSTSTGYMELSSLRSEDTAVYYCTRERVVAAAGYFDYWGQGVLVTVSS
# WRAIR-5004 (rhesus macaque), sequence (VL, as listed by the source, chain 2 of 2): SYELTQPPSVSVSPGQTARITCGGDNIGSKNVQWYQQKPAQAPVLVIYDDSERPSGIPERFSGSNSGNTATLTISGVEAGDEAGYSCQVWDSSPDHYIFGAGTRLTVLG
# WRAIR-5005 (rhesus macaque), sequence (VH, as listed by the source, chain 1 of 2): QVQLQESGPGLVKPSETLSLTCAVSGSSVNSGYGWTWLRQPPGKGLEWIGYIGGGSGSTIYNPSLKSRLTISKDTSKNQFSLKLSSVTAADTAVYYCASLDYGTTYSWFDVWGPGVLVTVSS
# WRAIR-5005 (rhesus macaque), sequence (VL, as listed by the source, chain 2 of 2): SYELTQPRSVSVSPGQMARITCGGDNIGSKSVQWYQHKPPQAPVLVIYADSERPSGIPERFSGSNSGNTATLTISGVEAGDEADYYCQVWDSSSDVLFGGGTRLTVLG
# WRAIR-5001 (rhesus macaque), sequence (VH, as listed by the source, chain 1 of 2): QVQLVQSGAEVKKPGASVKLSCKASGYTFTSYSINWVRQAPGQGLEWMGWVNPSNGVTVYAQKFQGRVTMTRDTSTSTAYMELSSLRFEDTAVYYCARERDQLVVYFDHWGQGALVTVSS
# WRAIR-5001 (rhesus macaque), sequence (VL, as listed by the source, chain 2 of 2): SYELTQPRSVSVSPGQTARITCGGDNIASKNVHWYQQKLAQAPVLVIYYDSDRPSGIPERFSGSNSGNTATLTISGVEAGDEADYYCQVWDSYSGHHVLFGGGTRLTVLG
substance,measurement,setting,value
SARS-CoV-1 RBD (domain or fragment),Kd,[1],3.45 nM
same,koff,[2],0.00061 s⁻¹
same,kon,[2],177000 M⁻¹ s⁻¹
same,Kd,[3],28.9 nM
same,koff,[3],0.00458 s⁻¹
same,kon,[3],158000 M⁻¹ s⁻¹
same,Kd,[4],154 nM
same,koff,[4],0.00318 s⁻¹
same,kon,[4],20700 M⁻¹ s⁻¹
same,Kd,[5],12.7 nM
same,koff,[5],0.0014 s⁻¹
same,kon,[5],110000 M⁻¹ s⁻¹
